{
  "source": "patent US20140087995A1",
  "about": "(published 2014)",
  "binders": {"B1": {"name": "N{Alpha-1}-[(4S)-4-carboxy-4-(19-carboxynonadecanoylamino)butanoyl]-[Glu14,Arg17,Pro21,Pro27,Lys34]-h-amylin (peptide)", "peptide": "{C20 diacid-γGlu}-KCNTATCATQRLAEFLRHSSPNFGAIPSSTNVGKNTY-NH2", "modifications": "disulfide 2-7", "SMILES": "CC[C@H](C)[C@H](NC(=O)[C@H](C)NC(=O)CNC(=O)[C@H](Cc1ccccc1)NC(=O)[C@H](CC(N)=O)NC(=O)[C@@H]1CCCN1C(=O)[C@H](CO)NC(=O)[C@H](CO)NC(=O)[C@H](Cc1c[nH]cn1)NC(=O)[C@H](CCCNC(=N)N)NC(=O)[C@H](CC(C)C)NC(=O)[C@H](Cc1ccccc1)NC(=O)[C@H](CCC(=O)O)NC(=O)[C@H](C)NC(=O)[C@H](CC(C)C)NC(=O)[C@H](CCCNC(=N)N)NC(=O)[C@H](CCC(N)=O)NC(=O)[C@@H](NC(=O)[C@H](C)NC(=O)[C@@H]1CSSC[C@H](NC(=O)[C@H](CCCCN)NC(=O)CC[C@H](NC(=O)CCCCCCCCCCCCCCCCCCC(=O)O)C(=O)O)C(=O)N[C@@H](CC(N)=O)C(=O)N[C@@H]([C@@H](C)O)C(=O)N[C@@H](C)C(=O)N[C@@H]([C@@H](C)O)C(=O)N1)[C@@H](C)O)C(=O)N1CCC[C@H]1C(=O)N[C@@H](CO)C(=O)N[C@@H](CO)C(=O)N[C@H](C(=O)N[C@@H](CC(N)=O)C(=O)N[C@H](C(=O)NCC(=O)N[C@@H](CCCCN)C(=O)N[C@@H](CC(N)=O)C(=O)N[C@H](C(=O)N[C@@H](Cc1ccc(O)cc1)C(N)=O)[C@@H](C)O)C(C)C)[C@@H](C)O", "notes": "also called compound 36"}, "B2": {"name": "N^α1 N^α1-[(4S)-4-carboxy-4-[[(4S)-4-carboxy-4-(19-carboxynonadecanoylamino)butanoyl]amino]butanoyl]-[Glu14,Arg17,Pro21,Pro27]-h-amylin (peptide)", "peptide": "{C20 diacid-γGlu-γGlu}-KCNTATCATQRLAEFLRHSSPNFGAIPSSTNVGSNTY-NH2", "modifications": "disulfide 2-7", "SMILES": "CC[C@H](C)[C@H](NC(=O)[C@H](C)NC(=O)CNC(=O)[C@H](Cc1ccccc1)NC(=O)[C@H](CC(N)=O)NC(=O)[C@@H]1CCCN1C(=O)[C@H](CO)NC(=O)[C@H](CO)NC(=O)[C@H](Cc1c[nH]cn1)NC(=O)[C@H](CCCNC(=N)N)NC(=O)[C@H](CC(C)C)NC(=O)[C@H](Cc1ccccc1)NC(=O)[C@H](CCC(=O)O)NC(=O)[C@H](C)NC(=O)[C@H](CC(C)C)NC(=O)[C@H](CCCNC(=N)N)NC(=O)[C@H](CCC(N)=O)NC(=O)[C@@H](NC(=O)[C@H](C)NC(=O)[C@@H]1CSSC[C@H](NC(=O)[C@H](CCCCN)NC(=O)CC[C@H](NC(=O)CC[C@H](NC(=O)CCCCCCCCCCCCCCCCCCC(=O)O)C(=O)O)C(=O)O)C(=O)N[C@@H](CC(N)=O)C(=O)N[C@@H]([C@@H](C)O)C(=O)N[C@@H](C)C(=O)N[C@@H]([C@@H](C)O)C(=O)N1)[C@@H](C)O)C(=O)N1CCC[C@H]1C(=O)N[C@@H](CO)C(=O)N[C@@H](CO)C(=O)N[C@H](C(=O)N[C@@H](CC(N)=O)C(=O)N[C@H](C(=O)NCC(=O)N[C@@H](CO)C(=O)N[C@@H](CC(N)=O)C(=O)N[C@H](C(=O)N[C@@H](Cc1ccc(O)cc1)C(N)=O)[C@@H](C)O)C(C)C)[C@@H](C)O", "notes": "also called compound 15"}, "B3": {"name": "N^α1-[2-[2-[2-[[2-[2-[2-[[(4S)-4-carboxy-4-(19-carboxynonadecanoylamino)butanoyl]amino]ethoxy]ethoxy]acetyl]amino]ethoxy]ethoxy]acetyl]-[Glu14,Arg17,Pro21,Pro27 … (peptide)", "peptide": "KCNTATCATQRLAEFLRHSSPNFGAIPSSTNVGSNTY", "modifications": "C20 diacid-gGlu-2xOEG on the alpha amino group of the N-terminal residue; disulfide bridge Cys2-Cys7; C-terminal amide", "notes": "also called compound 19"}, "B4": {"name": "N^ε-[(4S)-4-carboxy-4-(19-carboxynonadecanoylamino)butanoyl]Lys[Arg1,Arg17,Pro21,Pro27,His35]-h-amylin (peptide)", "peptide": "K([γGlu-C20 diacid])RCNTATCATQRLANFLRHSSPNFGAIPSSTNVGSHTY-NH2", "modifications": "disulfide 3-8; N-terminus assumed", "SMILES": "CC[C@H](C)[C@H](NC(=O)[C@H](C)NC(=O)CNC(=O)[C@H](Cc1ccccc1)NC(=O)[C@H](CC(N)=O)NC(=O)[C@@H]1CCCN1C(=O)[C@H](CO)NC(=O)[C@H](CO)NC(=O)[C@H](Cc1c[nH]cn1)NC(=O)[C@H](CCCNC(=N)N)NC(=O)[C@H](CC(C)C)NC(=O)[C@H](Cc1ccccc1)NC(=O)[C@H](CC(N)=O)NC(=O)[C@H](C)NC(=O)[C@H](CC(C)C)NC(=O)[C@H](CCCNC(=N)N)NC(=O)[C@H](CCC(N)=O)NC(=O)[C@@H](NC(=O)[C@H](C)NC(=O)[C@@H]1CSSC[C@H](NC(=O)[C@H](CCCNC(=N)N)NC(=O)[C@@H](N)CCCCNC(=O)CC[C@H](NC(=O)CCCCCCCCCCCCCCCCCCC(=O)O)C(=O)O)C(=O)N[C@@H](CC(N)=O)C(=O)N[C@@H]([C@@H](C)O)C(=O)N[C@@H](C)C(=O)N[C@@H]([C@@H](C)O)C(=O)N1)[C@@H](C)O)C(=O)N1CCC[C@H]1C(=O)N[C@@H](CO)C(=O)N[C@@H](CO)C(=O)N[C@H](C(=O)N[C@@H](CC(N)=O)C(=O)N[C@H](C(=O)NCC(=O)N[C@@H](CO)C(=O)N[C@@H](Cc1c[nH]cn1)C(=O)N[C@H](C(=O)N[C@@H](Cc1ccc(O)cc1)C(N)=O)[C@@H](C)O)C(C)C)[C@@H](C)O", "notes": "extended by one residue at the N-terminus; also called compound 44"}, "B5": {"name": "N^-1-[(4S)-4-carboxy-4-(19-carboxynonadecanoylamino)butanoyl]-Gly[Arg1,Arg17,Pro21,Pro27]-h-amylin (peptide)", "peptide": "{C20 diacid-γGlu}-GRCNTATCATQRLANFLRHSSPNFGAIPSSTNVGSNTY-NH2", "modifications": "disulfide 3-8", "SMILES": "CC[C@H](C)[C@H](NC(=O)[C@H](C)NC(=O)CNC(=O)[C@H](Cc1ccccc1)NC(=O)[C@H](CC(N)=O)NC(=O)[C@@H]1CCCN1C(=O)[C@H](CO)NC(=O)[C@H](CO)NC(=O)[C@H](Cc1c[nH]cn1)NC(=O)[C@H](CCCNC(=N)N)NC(=O)[C@H](CC(C)C)NC(=O)[C@H](Cc1ccccc1)NC(=O)[C@H](CC(N)=O)NC(=O)[C@H](C)NC(=O)[C@H](CC(C)C)NC(=O)[C@H](CCCNC(=N)N)NC(=O)[C@H](CCC(N)=O)NC(=O)[C@@H](NC(=O)[C@H](C)NC(=O)[C@@H]1CSSC[C@H](NC(=O)[C@H](CCCNC(=N)N)NC(=O)CNC(=O)CC[C@H](NC(=O)CCCCCCCCCCCCCCCCCCC(=O)O)C(=O)O)C(=O)N[C@@H](CC(N)=O)C(=O)N[C@@H]([C@@H](C)O)C(=O)N[C@@H](C)C(=O)N[C@@H]([C@@H](C)O)C(=O)N1)[C@@H](C)O)C(=O)N1CCC[C@H]1C(=O)N[C@@H](CO)C(=O)N[C@@H](CO)C(=O)N[C@H](C(=O)N[C@@H](CC(N)=O)C(=O)N[C@H](C(=O)NCC(=O)N[C@@H](CO)C(=O)N[C@@H](CC(N)=O)C(=O)N[C@H](C(=O)N[C@@H](Cc1ccc(O)cc1)C(N)=O)[C@@H](C)O)C(C)C)[C@@H](C)O", "notes": "extended by one residue at the N-terminus; also called compound 46"}, "B6": {"name": "N^-1-[(4S)-4-carboxy-4-(19-carboxynonadecanoylamino)butanoyl]-Gly[Arg1,Arg17,Pro21,Pro27,His35]-h-amylin (peptide)", "peptide": "{C20 diacid-γGlu}-GRCNTATCATQRLANFLRHSSPNFGAIPSSTNVGSHTY-NH2", "modifications": "disulfide 3-8", "SMILES": "CC[C@H](C)[C@H](NC(=O)[C@H](C)NC(=O)CNC(=O)[C@H](Cc1ccccc1)NC(=O)[C@H](CC(N)=O)NC(=O)[C@@H]1CCCN1C(=O)[C@H](CO)NC(=O)[C@H](CO)NC(=O)[C@H](Cc1c[nH]cn1)NC(=O)[C@H](CCCNC(=N)N)NC(=O)[C@H](CC(C)C)NC(=O)[C@H](Cc1ccccc1)NC(=O)[C@H](CC(N)=O)NC(=O)[C@H](C)NC(=O)[C@H](CC(C)C)NC(=O)[C@H](CCCNC(=N)N)NC(=O)[C@H](CCC(N)=O)NC(=O)[C@@H](NC(=O)[C@H](C)NC(=O)[C@@H]1CSSC[C@H](NC(=O)[C@H](CCCNC(=N)N)NC(=O)CNC(=O)CC[C@H](NC(=O)CCCCCCCCCCCCCCCCCCC(=O)O)C(=O)O)C(=O)N[C@@H](CC(N)=O)C(=O)N[C@@H]([C@@H](C)O)C(=O)N[C@@H](C)C(=O)N[C@@H]([C@@H](C)O)C(=O)N1)[C@@H](C)O)C(=O)N1CCC[C@H]1C(=O)N[C@@H](CO)C(=O)N[C@@H](CO)C(=O)N[C@H](C(=O)N[C@@H](CC(N)=O)C(=O)N[C@H](C(=O)NCC(=O)N[C@@H](CO)C(=O)N[C@@H](Cc1c[nH]cn1)C(=O)N[C@H](C(=O)N[C@@H](Cc1ccc(O)cc1)C(N)=O)[C@@H](C)O)C(C)C)[C@@H](C)O", "notes": "extended by one residue at the N-terminus; also called compound 47"}},
  "note": "Numbered stars: 1 amine (or outer) side, 2 acyl side, 3 side chain; on linkers, the order of the positions; unused ones are H or OH. Bridge positions count the residues as written; N and C are the ends. Side chains are listed from the residue outwards. Ends that are not written are not given here. * marks the point of attachment. C20 diacid = O=C(O)CCCCCCCCCCCCCCCCCCC(=O)*; γGlu = O=C(O)[C@H](CCC(=O)[*:2])N[*:1]",
  "data": [
    {"target": "T1, human calcitonin receptor (human, UniProt P30988 25-474)", "T1 construct": "whole, on cells; also called hCTR; hCT", "T1 sequence (looked up)": "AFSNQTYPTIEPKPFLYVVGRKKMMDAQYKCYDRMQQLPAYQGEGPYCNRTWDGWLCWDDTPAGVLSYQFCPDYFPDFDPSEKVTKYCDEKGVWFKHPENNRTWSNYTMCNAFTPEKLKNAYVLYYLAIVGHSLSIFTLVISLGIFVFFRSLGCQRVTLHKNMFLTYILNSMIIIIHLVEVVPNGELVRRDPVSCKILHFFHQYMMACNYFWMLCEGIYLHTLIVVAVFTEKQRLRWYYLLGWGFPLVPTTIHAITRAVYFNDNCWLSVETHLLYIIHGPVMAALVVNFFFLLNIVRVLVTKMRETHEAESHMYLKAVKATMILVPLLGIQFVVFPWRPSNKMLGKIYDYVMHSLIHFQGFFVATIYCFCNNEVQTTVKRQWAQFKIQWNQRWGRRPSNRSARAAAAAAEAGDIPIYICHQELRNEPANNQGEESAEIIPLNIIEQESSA", "assay": "SPA competition binding, membranes with human calcitonin receptor, displacement of 125I-calcitonin (Assay VII)", "procedure,_shortened": "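BHK hCTR membranes 35 ng/μL + SPA beads 0.05 mg/well; buffer 50 mM Hepes pH 7.4, 1 mM CaCl2, 5 mM MgCl₂, 0.1% OA, 0.02% Tween20. 120 min, 25° C., shaking. Scintillation count; IC50 by one-site binding competition.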", "units": {"IC50": "µM"}, "values": [
      {"binder": "B1", "IC50": 0.0063},
      {"binder": "B2", "IC50": 0.0155},
      {"binder": "B3", "IC50": 0.0204},
      {"binder": "B4", "IC50": 0.00487},
      {"binder": "B5", "IC50": 0.00953},
      {"binder": "B6", "IC50": 0.0155}
    ]},
    {"target": "T1, human calcitonin receptor", "assay": "ratio of IC50 at hCTR to IC50 at the human amylin receptor (reference)", "procedure,_shortened": "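Scintillation proximity competition binding on cell membranes at 35 ng/μL with SPA beads, in 50 mM Hepes pH 7.4, 1 mM CaCl2, 5 mM MgCl₂, 0.1% OA, 0.02% Tween20. Incubated 120 min at 25° C with shaking. IC₅₀ from one-site competition fit.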", "values": [
      {"binder": "B1", "Ratio hCT/hAmylin binding": 15.7},
      {"binder": "B2", "Ratio hCT/hAmylin binding": 26},
      {"binder": "B3", "Ratio hCT/hAmylin binding": 36.7},
      {"binder": "B4", "Ratio hCT/hAmylin binding": 17.7},
      {"binder": "B5", "Ratio hCT/hAmylin binding": 48.9},
      {"binder": "B6", "Ratio hCT/hAmylin binding": 44.9}
    ]}
  ]
}
